Experimental data as given in article PMC3074124.

Molecular target: T1, His6-MBNL1 (human, UniProt Q9NR56-5 1-382)
T1 sequence: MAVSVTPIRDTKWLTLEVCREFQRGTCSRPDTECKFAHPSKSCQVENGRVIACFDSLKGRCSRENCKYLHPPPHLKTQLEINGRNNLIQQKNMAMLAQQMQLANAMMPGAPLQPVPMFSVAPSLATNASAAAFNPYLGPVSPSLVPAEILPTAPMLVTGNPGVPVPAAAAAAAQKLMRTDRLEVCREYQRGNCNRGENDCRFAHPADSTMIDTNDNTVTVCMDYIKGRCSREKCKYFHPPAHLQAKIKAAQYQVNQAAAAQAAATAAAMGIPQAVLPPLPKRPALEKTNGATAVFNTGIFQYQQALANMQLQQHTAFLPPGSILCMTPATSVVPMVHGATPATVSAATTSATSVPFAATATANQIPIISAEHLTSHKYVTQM
Experiment: EMSA

B1: DOWN (ssRNA)
RNA: GUAUGACUCACCUGUGCGACCCCUGGUGCCUGCUCCGCGCAGGGCCGGCGGCGUGCCAGGCAGAUGCCUCGGAGAACCCAGGGGUUUCUGUGGCUUUUUGCAUGCGGCGGGCAGCUGUGCUGGAGAGCAGAUGCUUCACCAAUUCAGAAAUCCAAUGCCUUCACUCUGAAAUGAAAUCUGGGCAU
  binding result: binds
